± gives the uncertainty stated by the source.
Assay: self-splicing fitness, log relative to wild type (ln ratio); higher = more splicing; Tetrahymena group I intron in knt gene, E. coli kanamycin selection, DiMSum; sequences stand for … in CUCUCU…GGAGGGAAAAGUUAUCAGGCAUGCACCUGGUAGCUAGUCUUUAAACCAAUAGAUUGCAUCGGUUUAAAAGGCAAGACCGUCAAAUUGCGGGAAAGGGGUCAACAGCCGUUCAGUACCAAGUCUCAGGGGAAACUUUGAGAUGGCCUUGCAAAGGGUAUGGUAAUAAGCUGACGGACAUGGUCCUAACCACGCAGCCAAGUCCUAAGUCAACAGAUCUUCUGUUGAUAUGGAUGCAGUUCACAGACUAAAUGUCGGUCGGGGAAGAUGUAUUCUUCUCAUAAGAUAUAGUCGGACCUCUCCUUAAUGGGAGCUAGCGGAUGAAGUGAUGCAACACUGGAGCCGCUGGGAACUAAUUUGUAUGCGAAAGUAUAUUGAUUAGUUUUGGAGUACUCGUGGUCG
Method in brief: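 DiMSum derived fitness as the error-weighted combination of fold changes across replicates, kanamycin versus no kanamycin, normalised to wild type. E. coli BL21(DE3) held the library, which randomised all eight P1ex-region intron nucleotides within the knt kanamycin-resistance gene on pET-22b(+). Six replicate transformations grew overnight at 37°C or 30°C on LB agar with or without 25 μg/mL kanamycin, also containing 100 μg/mL carbenicillin, 50 μM IPTG and 0.2% rhamnose, and pooled colonies were amplicon-sequenced on an Illumina HiSeq 2500.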

Sequence	self-splicing fitness (ln) (30 °C)	self-splicing fitness (ln) (37 °C)
AUUCAGCAAUAUUACGCUGA	-3.06 ± 0.28	-2.6 ± 0.26
AUUCAGCAAUAUUACGCUUA	-0.623 ± 0.078	-0.332 ± 0.091
AUUCAGCAAUAUUACGCUUU	-0.755 ± 0.055	-0.787 ± 0.068
AUUCAGCAAUAUUACGGAAA	-1.03 ± 0.12	-0.365 ± 0.12
AUUCAGCAAUAUUACGGCAA	-0.94 ± 0.083	0.292 ± 0.1
AUUCAGCAAUAUUACGGGUG	-1.71 ± 0.077	-0.135 ± 0.086
AUUCAGCAAUAUUACGGUAG	-3.49 ± 0.17	-2.87 ± 0.2
AUUCAGCAAUAUUACGGUUG	-2.89 ± 0.11	-0.981 ± 0.11
AUUCAGCAAUAUUACGUACC	-0.843 ± 0.061	-0.514 ± 0.089
AUUCAGCAAUAUUACGUCCC	-1.53 ± 0.13	-1.3 ± 0.14
AUUCAGCAAUAUUACGUCCG	-0.866 ± 0.2	-1.33 ± 0.24
AUUCAGCAAUAUUACGUCGG	-3.16 ± 0.17	-2.28 ± 0.21
AUUCAGCAAUAUUACGUCUA	-0.634 ± 0.11	-0.557 ± 0.1
AUUCAGCAAUAUUACGUGCA	-0.628 ± 0.08	-0.47 ± 0.083
AUUCAGCAAUAUUACGUUUU	-2.06 ± 0.09	-0.724 ± 0.091
AUUGAGCAAUAUUACGAAAG	-2.69 ± 0.38	-1.72 ± 0.29
AUUGAGCAAUAUUACGAAAU	-3.34 ± 0.12	-2.88 ± 0.16
AUUGAGCAAUAUUACGAGCG	-3.1 ± 0.27	
AUUGAGCAAUAUUACGAUCA	-1.91 ± 0.16	-2.07 ± 0.17
AUUGAGCAAUAUUACGCGAA	-3.61 ± 0.37	-1.28 ± 0.26
AUUGAGCAAUAUUACGGACA	-2.68 ± 0.31	
AUUGAGCAAUAUUACGGGCU	-4.12 ± 0.36	-2.25 ± 0.42
AUUGAGCAAUAUUACGGUGU	-1.92 ± 0.15	-2.31 ± 0.37
AUUGAGCAAUAUUACGGUUG	-3.28 ± 0.31	-2.48 ± 0.29

Sequence	self-splicing fitness (ln) (30 °C)	self-splicing fitness (ln) (37 °C)
AUUGAGCAAUAUUACGUCAG	-2.96 ± 0.2	-2.3 ± 0.45
AUUGAGCAAUAUUACGUUCC	-1.94 ± 0.23	-2.1 ± 0.3
AUUUAGCAAUAUUACGAAGA	-2.11 ± 0.4	-1.36 ± 0.34
AUUUAGCAAUAUUACGACAC	-0.837 ± 0.12	-0.373 ± 0.14
AUUUAGCAAUAUUACGACGC	-1.8 ± 0.19	-0.352 ± 0.21
AUUUAGCAAUAUUACGAGCU	-1.88 ± 0.17	-0.00846 ± 0.15
AUUUAGCAAUAUUACGAUCG	-1.76 ± 0.15	-0.669 ± 0.12
AUUUAGCAAUAUUACGCCAC	-3.24 ± 0.48	-1.36 ± 0.35
AUUUAGCAAUAUUACGCCCU	0.0873 ± 0.082	0.37 ± 0.11
AUUUAGCAAUAUUACGGACC	-1.57 ± 0.2	-1.29 ± 0.27
AUUUAGCAAUAUUACGGAUA	-2.18 ± 0.27	-1.53 ± 0.27
AUUUAGCAAUAUUACGGCCA	-0.814 ± 0.21	-0.925 ± 0.23
AUUUAGCAAUAUUACGGGGC	-3.54 ± 0.41	
AUUUAGCAAUAUUACGUAAC	-2.52 ± 0.18	-2.58 ± 0.2
AUUUAGCAAUAUUACGUAAG	-2.8 ± 0.18	0.197 ± 0.18
AUUUAGCAAUAUUACGUAGA	-2.08 ± 0.15	-2.48 ± 0.23
AUUUAGCAAUAUUACGUCCA	-0.944 ± 0.15	-0.558 ± 0.27
AUUUAGCAAUAUUACGUCCG	-1.76 ± 0.18	-0.728 ± 0.22
AUUUAGCAAUAUUACGUCUG	-1.73 ± 0.11	-1.15 ± 0.11
AUUUAGCAAUAUUACGUGCA	-1.05 ± 0.11	-0.306 ± 0.16
AUUUAGCAAUAUUACGUUGC	-3.26 ± 0.41	
CAAAAGCAAUAUUACGAACG	0.409 ± 0.072	0.483 ± 0.095
CAAAAGCAAUAUUACGAAGC	-4.63 ± 0.36	-2.27 ± 0.21
CAAAAGCAAUAUUACGACAU	-2.345 ± 0.013	-1.34 ± 0.033

Sequence	self-splicing fitness (ln) (30 °C)	self-splicing fitness (ln) (37 °C)
CAAAAGCAAUAUUACGACCU	-1.79 ± 0.095	-0.569 ± 0.084
CAAAAGCAAUAUUACGACUG	-0.738 ± 0.068	0.168 ± 0.099
CAAAAGCAAUAUUACGCAAG	-1.52 ± 0.12	0.0344 ± 0.12
CAAAAGCAAUAUUACGCAGU	-4.31 ± 0.24	-3.64 ± 0.27
CAAAAGCAAUAUUACGCCAU	-3.4 ± 0.2	-2.61 ± 0.23
CAAAAGCAAUAUUACGCCUU	-3.67 ± 0.17	-0.986 ± 0.12
CAAAAGCAAUAUUACGCGCC	-2.04 ± 0.17	-0.789 ± 0.19
CAAAAGCAAUAUUACGCGGA	-3.43 ± 0.25	-2.08 ± 0.17
CAAAAGCAAUAUUACGCGGC	-2.85 ± 0.21	-2.21 ± 0.28
CAAAAGCAAUAUUACGCUUC	-3.84 ± 0.33	-1.99 ± 0.24
CAAAAGCAAUAUUACGGCCC	-2.01 ± 0.31	-1.06 ± 0.3
CAAAAGCAAUAUUACGGCUU	-3.44 ± 0.11	-2.39 ± 0.11
CAAAAGCAAUAUUACGGUAU	-3.42 ± 0.15	-2.67 ± 0.15
CAAAAGCAAUAUUACGUAAA	-1.47 ± 0.092	-1.32 ± 0.11
CAAAAGCAAUAUUACGUAUU	-4.13 ± 0.18	-2.78 ± 0.15
CAAAAGCAAUAUUACGUGUU	-3.61 ± 0.13	-2.37 ± 0.13
CAAAAGCAAUAUUACGUUCA	-1.67 ± 0.11	-0.976 ± 0.1
CAAAAGCAAUAUUACGUUGU	-3.3 ± 0.11	-2.4 ± 0.14
CAAAAGCAAUAUUACGUUUG	-3.08 ± 0.14	-2.55 ± 0.18
CAACAGCAAUAUUACGAAUC	-3.47 ± 0.13	-2.41 ± 0.14
CAACAGCAAUAUUACGACCA	-1.66 ± 0.099	-0.585 ± 0.097
CAACAGCAAUAUUACGACGU	-0.776 ± 0.042	-0.12 ± 0.054
CAACAGCAAUAUUACGAGCC	-3.76 ± 0.46	-1.95 ± 0.29
CAACAGCAAUAUUACGAUAA	-2.08 ± 0.1	-1.67 ± 0.11

Sequence	self-splicing fitness (ln) (30 °C)	self-splicing fitness (ln) (37 °C)
CAACAGCAAUAUUACGAUCU	-2.02 ± 0.13	-0.986 ± 0.12
CAACAGCAAUAUUACGAUGG	-0.426 ± 0.056	0.257 ± 0.075
CAACAGCAAUAUUACGGCCA	-2.55 ± 0.15	-1.59 ± 0.14
CAACAGCAAUAUUACGGCUC	-1.38 ± 0.078	-0.333 ± 0.098
CAACAGCAAUAUUACGGGGA	-2.24 ± 0.093	-2.14 ± 0.11
CAACAGCAAUAUUACGGGGU	-4.57 ± 0.23	-2.79 ± 0.15
CAACAGCAAUAUUACGGUAG	-0.633 ± 0.059	-0.746 ± 0.068
CAACAGCAAUAUUACGUCGC	-2.75 ± 0.17	-2.07 ± 0.18
CAACAGCAAUAUUACGUGCA	-2.72 ± 0.11	-1.57 ± 0.092
CAACAGCAAUAUUACGUUGG	-2.86 ± 0.096	-1.5 ± 0.095
CAACAGCAAUAUUACGUUUG	-3.3 ± 0.077	-2.11 ± 0.094
CAACAGCAAUAUUACGUUUU	-3.57 ± 0.11	-2.19 ± 0.11
CAAGAGCAAUAUUACGAAUC	-3.46 ± 0.41	-1.26 ± 0.38
CAAGAGCAAUAUUACGAGCC	-4.42 ± 0.34	-2.31 ± 0.32
CAAGAGCAAUAUUACGAUAG	-1.53 ± 0.11	-0.239 ± 0.13
CAAGAGCAAUAUUACGAUUG	-2.26 ± 0.13	-1.86 ± 0.15
CAAGAGCAAUAUUACGCAUA	-2.71 ± 0.31	-2.3 ± 0.37
CAAGAGCAAUAUUACGCGUU	-3.61 ± 0.22	-3.05 ± 0.25
CAAGAGCAAUAUUACGCUAC	-2.4 ± 0.26	-1.66 ± 0.38
CAAGAGCAAUAUUACGCUCA	-2.63 ± 0.17	-1.08 ± 0.2
CAAGAGCAAUAUUACGCUCG	-2.16 ± 0.44	-1.26 ± 0.41
CAAGAGCAAUAUUACGGAAG	-1.75 ± 0.13	-1.31 ± 0.19
CAAGAGCAAUAUUACGGAUC	-3.07 ± 0.18	-3.27 ± 0.27
CAAGAGCAAUAUUACGGGGG	-3.3 ± 0.21	-2.62 ± 0.2
